± gives the uncertainty stated by the source.
B1: Far upstream element-binding protein 1, residues 98 to 169; numbered along this chain, Q96AE4 (parent)
chain: RSVMTEEYKVPDGMVGFIIGRGGEQISRIQQESGCKIQIAPDSGGLPERSCMLTGTPESVQSAKRLLDQIVE

Variants of: B1
Experiment: abundance fitness (aPCA) (normalised: wild type 0, dead -1); higher = more abundant; growth selection in yeast, the domain comes from the species named
Details: Homo sapiens

| Variant | abundance fitness |
| --- | --- |
| RSVMTEEYKVPDGMVGFIIGRGGEQISNIQQESGCKIQIAPDSGGLPERSCMLTGTPESVQSAKRLLDQIVE [R28N] | -0.102 ± 0.048 |
| RSVMTEEYKVPDGMVGFIIGRGGEQISQIQQESGCKIQIAPDSGGLPERSCMLTGTPESVQSAKRLLDQIVE [R28Q] | -0.033 ± 0.038 |
| RSVMTEEYKVPDGMVGFIIGRGGEQISYIQQESGCKIQIAPDSGGLPERSCMLTGTPESVQSAKRLLDQIVE [R28Y] | -0.131 ± 0.044 |
| RSVMTEEYKVPDGMVGFIIGRGGEQISLIQQESGCKIQIAPDSGGLPERSCMLTGTPESVQSAKRLLDQIVE [R28L] | -0.071 ± 0.03 |
| RSVMTEEYKVPDGMVGFIIGRGGEQISEIQQESGCKIQIAPDSGGLPERSCMLTGTPESVQSAKRLLDQIVE [R28E] | -0.058 ± 0.03 |
| RSVMTEEYKVPDGMVGFIIGRGGEQISFIQQESGCKIQIAPDSGGLPERSCMLTGTPESVQSAKRLLDQIVE [R28F] | -0.168 ± 0.05 |
| RSVMTEEYKVPDGMVGFIIGRGGEQISKIQQESGCKIQIAPDSGGLPERSCMLTGTPESVQSAKRLLDQIVE [R28K] | -0.028 ± 0.038 |
| RSVMTEEYKVPDGMVGFIIGRGGEQISWIQQESGCKIQIAPDSGGLPERSCMLTGTPESVQSAKRLLDQIVE [R28W] | -0.104 ± 0.032 |
| RSVMTEEYKVPDGMVGFIIGRGGEQISHIQQESGCKIQIAPDSGGLPERSCMLTGTPESVQSAKRLLDQIVE [R28H] | -0.021 ± 0.057 |
| RSVMTEEYKVPDGMVGFIIGRGGEQISDIQQESGCKIQIAPDSGGLPERSCMLTGTPESVQSAKRLLDQIVE [R28D] | -0.016 ± 0.041 |
| RSVMTEEYKVPDGMVGFIIGRGGEQISMIQQESGCKIQIAPDSGGLPERSCMLTGTPESVQSAKRLLDQIVE [R28M] | -0.083 ± 0.036 |
| RSVMTEEYKVPDGMVGFIIGRGGEQISAIQQESGCKIQIAPDSGGLPERSCMLTGTPESVQSAKRLLDQIVE [R28A] | -0.066 ± 0.028 |
| RSVMTEEYKVPDGMVGFIIGRGGEQISVIQQESGCKIQIAPDSGGLPERSCMLTGTPESVQSAKRLLDQIVE [R28V] | -0.108 ± 0.028 |
| RSVMTEEYKVPDGMVGFIIGRGGEQISIIQQESGCKIQIAPDSGGLPERSCMLTGTPESVQSAKRLLDQIVE [R28I] | -0.215 ± 0.059 |
| RSVMTEEYKVPDGMVGFIIGRGGEQISSIQQESGCKIQIAPDSGGLPERSCMLTGTPESVQSAKRLLDQIVE [R28S] | -0.045 ± 0.029 |
| RSVMTEEYKVPDGMVGFIIGRGGEQISCIQQESGCKIQIAPDSGGLPERSCMLTGTPESVQSAKRLLDQIVE [R28C] | -0.109 ± 0.056 |
| RSVMTEEYKVPDGMVGFIIGRGGEQISTIQQESGCKIQIAPDSGGLPERSCMLTGTPESVQSAKRLLDQIVE [R28T] | -0.068 ± 0.035 |
| RSVMTEEYKVPDGMVGFIIGRGGEQISGIQQESGCKIQIAPDSGGLPERSCMLTGTPESVQSAKRLLDQIVE [R28G] | -0.093 ± 0.024 |
| RSVMTEEYKVPDGMVGFIIGRGGEQPSRIQQESGCKIQIAPDSGGLPERSCMLTGTPESVQSAKRLLDQIVE [I26P] | -0.515 ± 0.044 |

| Variant | abundance fitness |
| --- | --- |
| RSVMTEEYKVPDGMVGFIIGRGGEQSSRIQQESGCKIQIAPDSGGLPERSCMLTGTPESVQSAKRLLDQIVE [I26S] | -0.239 ± 0.033 |
| RSVMTEEYKVPDGMVGFIIGRGGEQMSRIQQESGCKIQIAPDSGGLPERSCMLTGTPESVQSAKRLLDQIVE [I26M] | -0.084 ± 0.036 |
| RSVMTEEYKVPDGMVGFIIGRGGEQRSRIQQESGCKIQIAPDSGGLPERSCMLTGTPESVQSAKRLLDQIVE [I26R] | -0.17 ± 0.025 |
| RSVMTEEYKVPDGMVGFIIGRGGEQDSRIQQESGCKIQIAPDSGGLPERSCMLTGTPESVQSAKRLLDQIVE [I26D] | -0.529 ± 0.058 |
| RSVMTEEYKVPDGMVGFIIGRGGEQVSRIQQESGCKIQIAPDSGGLPERSCMLTGTPESVQSAKRLLDQIVE [I26V] | -0.104 ± 0.029 |
| RSVMTEEYKVPDGMVGFIIGRGGEQTSRIQQESGCKIQIAPDSGGLPERSCMLTGTPESVQSAKRLLDQIVE [I26T] | -0.092 ± 0.039 |
| RSVMTEEYKVPDGMVGFIIGRGGEQQSRIQQESGCKIQIAPDSGGLPERSCMLTGTPESVQSAKRLLDQIVE [I26Q] | -0.096 ± 0.035 |
| RSVMTEEYKVPDGMVGFIIGRGGEQASRIQQESGCKIQIAPDSGGLPERSCMLTGTPESVQSAKRLLDQIVE [I26A] | -0.132 ± 0.032 |
| RSVMTEEYKVPDGMVGFIIGRGGEQHSRIQQESGCKIQIAPDSGGLPERSCMLTGTPESVQSAKRLLDQIVE [I26H] | -0.139 ± 0.054 |
| RSVMTEEYKVPDGMVGFIIGRGGEQWSRIQQESGCKIQIAPDSGGLPERSCMLTGTPESVQSAKRLLDQIVE [I26W] | -0.158 ± 0.03 |
| RSVMTEEYKVPDGMVGFIIGRGGEQCSRIQQESGCKIQIAPDSGGLPERSCMLTGTPESVQSAKRLLDQIVE [I26C] | -0.103 ± 0.043 |
| RSVMTEEYKVPDGMVGFIIGRGGEQLSRIQQESGCKIQIAPDSGGLPERSCMLTGTPESVQSAKRLLDQIVE [I26L] | 0.023 ± 0.029 |
| RSVMTEEYKVPDGMVGFIIGRGGEQISRIQEESGCKIQIAPDSGGLPERSCMLTGTPESVQSAKRLLDQIVE [Q31E] | 0.028 ± 0.035 |
| RSVMTEEYKVPDGMVGFIIGRGGEQISRIQAESGCKIQIAPDSGGLPERSCMLTGTPESVQSAKRLLDQIVE [Q31A] | -0.026 ± 0.028 |
| RSVMTEEYKVPDGMVGFIIGRGGEQISRIQDESGCKIQIAPDSGGLPERSCMLTGTPESVQSAKRLLDQIVE [Q31D] | 0.034 ± 0.043 |
| RSVMTEEYKVPDGMVGFIIGRGGEQISRIQCESGCKIQIAPDSGGLPERSCMLTGTPESVQSAKRLLDQIVE [Q31C] | 0.001 ± 0.048 |
| RSVMTEEYKVPDGMVGFIIGRGGEQISRWQQESGCKIQIAPDSGGLPERSCMLTGTPESVQSAKRLLDQIVE [I29W] | -0.26 ± 0.033 |
| RSVMTEEYKVPDGMVGFIIGRGGEQISRVQQESGCKIQIAPDSGGLPERSCMLTGTPESVQSAKRLLDQIVE [I29V] | -0.031 ± 0.029 |

Source: the Human Domainome abundance scans (Beltran et al. 2025)
